Each binder was assayed against HIV-1 NL4-3 Env on infected cells (HIV-1 group M subtype B, NL4-3 (pNL4-3 …, strain)).

Binder	binding result
c7487 (antibody, V domains shown) VH: AVTLRQSASEVKKPGTTLKMSCKGSGFSFAESFIYWFRQAPGKRPEYLGLIVPGVSDTVYPDNLKARVAITADTSIETVYLQLSSLTSEDTAVYFCATTTYCSPETCEVAFDVWGQGTTIIVSA VL: QSALTQPPSASGTPGQRVTIPCSGGSSNVGNNFVSWYQQLPGTAPRLLIYQDNVRPSGVPDRFSGSKSGASASLVISGLRSEDEADYYCCSWEDSLRGPLFGGGTKVTVL	binds
c13155 (antibody, V domains shown) VH: DVQLLESGGGLVQPGGSLRLSCAGSGYPFSTSDMGWVRQAPGKGLEWVAAIGRSGDGIHYAESVKGRFTISRDNSNNSIYLQMSDLRGDDTGVYYCAKSGWGWCKRGSCSLTVDYWGQGALVTVSS VL: EIVLTQSPATLSLSPGERATFSCRASQSVGSYLAWYQQKVGQSPRLLIYDSVNRGEGIPGRFSGRGVGTDFTLTIDAVEPEDFAVYYCQQRQIWPLTFGGGTKLEIK	binds
c27194 (antibody, V domains shown) VH: QVHLVQSGDELKKPGSSVKVSCTAAGGTLNKYPITWVRQAPGQGLEWMGTLSPLFGTTDYGQKFQGRLTITTDGSAAHMVLAALTPDDTAVYFCATDKAMGVLPALHFWGQGTLITVSS VL: EIVLTQSPGTLFLSPGERASLSCRASQNIGGLLAWYQQKPGQSPRLLIYDASNRATGIPARFSGSGSGTDFTLTISSLEPGDIAIYFCQQRSSWPVTFGGGTKVQIK	binds
c9596 (antibody, V domains shown) VH: EVQLVQSGAEVKKPGTTIKISCKVSGYSFTDSFIHWLKQTPGKGPEWMGLIDPEASDGNKLYAERFQGRLTITADTTTDTAYMELSSLTSDDTAIYYCASQSPSFSDNSRFYGFFDHWGQGTLVNVAS VL: DIVMTQSPDSLTVSLGERATFNCKSSQSVLDSSDNKNYLSWYQQKPGRPPKLLIYWASIRRSGVPDRFSGSGSGTDFTLTISSLQAEDAAVYFCQQYHTAPFTFGPGTKVDIK	binds
c8597 (antibody, V domains shown) VH: EVKLEASGGGLAQPGQSLRLSCIGSGFKFADYGLSWVRQTPGKGLQWVGFIRGRGSEATKHYAASVAGRFSMSRDDSKNIAYLQMKNLKTYDTGVYYCAREQYSFDFWSGYEDPYYYYMDLWGRGTTVTVSS VL: DIQMTQSPAALSASIGDRVTISCRASQNIRDWVAWYQQKPGKAPNLLIYRASTLQTAIPSRFSASGFGTDFTLTISSLQPDDFATYFCQHYNSHFTGYSFGQGTKLEIK	binds
c7484 (antibody, V domains shown) VH: AVHLTQSGTEVKRPGTSVRISCKGSGFVFRDSFIYWLRQAPGKGPQYLGLIDPGNADTVYPDNFKDRVSITADTSVSTTYLELRRLQFDDTALYFCATTTYCSADSCELALDVWGQGTTVTVSS VL: QSLLTQPPSASGAPGQSVTISCSGGASNIENNYVVWYQQVPGTAPKLIIYQDNVRPSGVPDRFSGSKSGASGSLLISGLRSEDEADYYCSSWDDSVRGPLFGGGTKVTVL	binds
c9433 (antibody, V domains shown) VH: QVQLVQSAAELRKPGESVKVSCKASGYRFTSYAISWVRQAPGQGLEWMGWMSPHSRTANYAQRFQGRVTMTTDTSTSTASMELRTLRSDDTAIYYCARRVYDWDIKETRLDPWGQGTLVTVSS VL: not shown	binds
c9368 (antibody, V domains shown) VH: QMQLVQSGAELKKPGSSVKVSCKASGGTVSSESVSWVRQAPGHGLEWMGGIIPMFGATNYAQRFQGRVTITADTSTSTAYMELRGLKFEDTAMYYCAREGDPGDYDSGRGLSNAFDIWGQGTMVSVSS VL: EIVMTQSPGTLSVSPGERATLSCRASQSVSSNLAWYQQKPGQAPRLLIYGASTRATGIPARFIGSGSGTEFTLTISSLQSEDLAIYYCQQYNSWPPQYTFGQGTKLEIK	binds
c32045 (antibody, V domains shown) VH: AVQLLESGGGLVKPGGSLRLSCAASGFTFGSYAMHWVRQAPGKGLEWVSSINISSTTYMYYSDSLKGRFTISRDNAKKTLYLQMASLRPEDTAVYYCVREATYCGSQCYSRYFDFWGSGTLVAVSS VL: DIQMTQSPPSVSAGVGDRVTITCRASQTISGFLSWYQQKPGKAPKLLIYAASTLHSGVPSRFSGSGSGTDFTLTISSLQPEDFATYYCQQSYSAPRTFGQGTKLEIK	binds
c2785 (antibody, V domains shown) VH: QVQLVQSGAEMKKPGSSVKVSCKASGGSFRSFTVNWVRQAPGQGLEWVGRIIAIFGSVDYAQKFQGRVTISADESTSTFYMDIRSLKSEDTAVYYCVRDGLVGGRDFWGQGTQVTVSS VL: EIVLTQSPGTLSLSPGERATLFCRASQSIKKNYVAWYQQNPGQAPRLLIYGASSRATGTPDRFSGSGSGTDFTLTISRLEPEDFAVYYCQQYGSAQYSFGQGTKLEIK	binds
c5407 (antibody, V domains shown) VH: QMQLQESGGGRVRPLETLSLACSVSGGSISGDGYYWTWIRQTPGRALEWIGHIHHYGITNYNPSLKSRLTISLDKPKNQFFLTLTSVTVADTALYFCARTFYTFWSGPHDFLDLWGHGTAVIISL VL: EIVMTQSPVTLSASPGERVALSCRASQSISTKLAWYQQRPGQAPTLLISGASSRASGTPARFSGSGSGADFTLTISTLQPEDFVLYFCQQYKEWPLTFGPGTKLEIK	binds
c8595 (antibody, V domains shown) VH: QVKLQESGPGLVKPSETLSLTCVVSGVSISQSDYFWNWLRQTPGKGLEWLGFISYSGDTFFNPSLESRLGMSVDTSSNHISLSLKSMTAADAAVYYCARTFCDDVKCYPLFDSWGHGKLVAVSS VL: DIVMTQSPDSLPLSPGERASINCQSSQSVLYSSDNRNYLAWYQLKPGQPPKLLIYWASVRASGVPDRFSGSGSGTDFTLSISSLQAEDVAVYYCQQYYITPYSFGQGTKVEIR	binds
c8553 (antibody, V domains shown) VH: QVQLVQSGAEMKMPGSSVKVSCKTSGGTFGSDSLNWVRQAPGQGLEWMGAIIPVFRTATYAQKFQGRVTITADTSTSTVSMDFYNLKSEDTAVYFCARFLLTSGDDIRDFFDLWGPGTMVTVSS VL: PSELTQDPAVSVPLGQTVKISCRGDNLGTYYTSWYQQKAGQAPLAVIYGDNKRPSEIPERFSGSSSGNTASLTITGARAEDEADYYCNSRDKSGSHVVFGGGTKLTVL	binds
c8582 (antibody, V domains shown) VH: QVHLVQSGAEVKKPGSSVKVSCKASGGSFSDYGISWVRQAPGQGLEWMGGIIPGFETTKFAQGLQGRLTMTADESSSTAYMVLNRLRPQDTGVYYCATTGQQNDYYSSGTSYKLNFYFGMDVWGQGTTVTVSS VL: QSVLTQPPSSSGTPGQRVTITCSGGSSNIETNSVHWYQQLPGAAPKTVISATHQRPSGVPDRFSASKSGASASLAISGLQSEDEADYYCAVWDDSLNTWVFGGGTKLTVL	binds
c8517 (antibody, V domains shown) VH: QVTLKESGPTLLRPADTLTLTCNFSGFSLTTDGVALGWMRQSPGKAPEWLAFLFYDDDKQYNPHLKSRLIISKASSTNQLVLAMTNMGPGDAGTYFCARLNVLVHDVPPRNYGLDVWGRGITITVSS VL: DIVLTQSPVSLSVTPGQSASMSCKSSETLLHEDGKSYLYWYLQKPGQSPQLLIYEASKRFSGVSDRFTASGTGTHFTLQIDRVEVDDVGVYYCMENLKALTFGGGTRMEIK	binds

Reference: publication PMC8196545 (Cell reports, 2021)
